T1: GRIP1_5, Q9Y3R0
T1 sequence (Q9Y3R0 568-668, limits assumed, looked up): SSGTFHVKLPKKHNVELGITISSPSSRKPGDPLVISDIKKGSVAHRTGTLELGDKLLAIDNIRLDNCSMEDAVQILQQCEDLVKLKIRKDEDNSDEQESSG

T2: APBA2_2, Q99767
T2 sequence (Q99767 654-744, limits assumed, looked up): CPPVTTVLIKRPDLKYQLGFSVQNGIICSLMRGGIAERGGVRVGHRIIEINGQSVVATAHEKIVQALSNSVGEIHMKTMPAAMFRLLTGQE

T3: MPDZ_12, O75970
T3 sequence (O75970 1857-1958, limits assumed, looked up): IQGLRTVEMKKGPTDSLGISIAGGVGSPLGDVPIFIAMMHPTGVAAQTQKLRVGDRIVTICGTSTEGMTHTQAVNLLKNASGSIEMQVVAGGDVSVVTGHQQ

T4: NHERF3_4, Q5T2W1
T4 sequence (Q5T2W1 373-468, limits assumed, looked up): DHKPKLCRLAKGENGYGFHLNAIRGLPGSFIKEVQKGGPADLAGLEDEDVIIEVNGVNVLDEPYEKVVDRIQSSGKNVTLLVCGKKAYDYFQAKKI

T5: PTPN13_1, Q12923
T5 sequence (Q12923 1088-1188, limits assumed, looked up): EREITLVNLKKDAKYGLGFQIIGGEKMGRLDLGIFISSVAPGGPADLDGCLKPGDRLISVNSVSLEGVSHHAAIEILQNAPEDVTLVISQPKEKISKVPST

T6: SHANK1, Q9Y566
T6 sequence (Q9Y566 658-767, limits assumed, looked up): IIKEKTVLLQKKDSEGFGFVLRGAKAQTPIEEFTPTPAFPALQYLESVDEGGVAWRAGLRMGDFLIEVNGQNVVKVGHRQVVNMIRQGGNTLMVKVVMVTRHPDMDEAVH

T7: LNX2_2, Q8N448
T7 sequence (Q8N448 334-432, limits assumed, looked up): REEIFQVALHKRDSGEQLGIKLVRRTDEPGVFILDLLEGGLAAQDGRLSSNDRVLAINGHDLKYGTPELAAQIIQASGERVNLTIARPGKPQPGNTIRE

T8: HTRA4, P83105
T8 sequence (P83105 378-476, limits assumed, looked up): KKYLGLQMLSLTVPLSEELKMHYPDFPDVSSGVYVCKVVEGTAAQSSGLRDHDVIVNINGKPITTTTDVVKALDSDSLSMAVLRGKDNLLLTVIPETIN

T9: RAPGEF6, Q8TEU7
T9 sequence (Q8TEU7 525-625, limits assumed, looked up): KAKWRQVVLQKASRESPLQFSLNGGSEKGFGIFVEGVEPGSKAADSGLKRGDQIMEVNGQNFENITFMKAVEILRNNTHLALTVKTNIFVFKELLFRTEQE

T10: PDZD7_3, Q9H5P4
T10 sequence (Q9H5P4 857-944, limits assumed, looked up): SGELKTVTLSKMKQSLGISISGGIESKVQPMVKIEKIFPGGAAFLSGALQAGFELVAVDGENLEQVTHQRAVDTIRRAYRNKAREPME

T11: APBA3_1, O96018
T11 sequence (O96018 389-490, limits assumed, looked up): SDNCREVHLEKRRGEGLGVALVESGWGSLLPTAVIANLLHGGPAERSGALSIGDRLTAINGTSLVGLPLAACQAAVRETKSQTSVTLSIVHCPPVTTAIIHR


molecular target: Inadl_3, Q8NI35; experiment: holdup assay; design: key: below the threshold = too weak to quantify, mostly under pKd 3.1 to 4; conditions: plain residues with an end cap or a label only (N-terminal biotin on a linker: ado-ado)
Sequence (Q8NI35 359-469): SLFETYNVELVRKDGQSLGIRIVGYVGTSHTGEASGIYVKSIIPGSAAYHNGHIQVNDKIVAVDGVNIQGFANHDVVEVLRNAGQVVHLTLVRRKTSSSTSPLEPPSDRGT

pKd | Binder
below the threshold | GIKKITSTAL [RPS6KA3, P51812]

molecular target: T1, GRIP1_5, Q9Y3R0; experiment: holdup assay; design: key: below the threshold = too weak to quantify, mostly under pKd 3.1 to 4; conditions: plain residues with an end cap or a label only (N-terminal biotin on a linker: ado-ado)

pKd | Binder
below the threshold | GIKKITSTAL [RPS6KA3, P51812]

molecular target: DLG4_2, P78352; experiment: holdup assay; design: key: below the threshold = too weak to quantify, mostly under pKd 3.1 to 4; conditions: plain residues with an end cap or a label only (N-terminal biotin on a linker: ado-ado)
Sequence (P78352 155-259): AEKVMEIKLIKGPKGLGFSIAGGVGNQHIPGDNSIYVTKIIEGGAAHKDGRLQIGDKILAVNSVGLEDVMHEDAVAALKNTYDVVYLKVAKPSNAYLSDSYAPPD

pKd | Binder
4.18 | GIKKITSTAL [RPS6KA3, P51812]

molecular target: T2, APBA2_2, Q99767; experiment: holdup assay; design: key: below the threshold = too weak to quantify, mostly under pKd 3.1 to 4; conditions: plain residues with an end cap or a label only (N-terminal biotin on a linker: ado-ado)

pKd | Binder
below the threshold | GIKKITSTAL [RPS6KA3, P51812]

molecular target: DLG4_3, P78352; experiment: holdup assay; design: key: below the threshold = too weak to quantify, mostly under pKd 3.1 to 4; conditions: plain residues with an end cap or a label only (N-terminal biotin on a linker: ado-ado)
Sequence (P78352 306-403): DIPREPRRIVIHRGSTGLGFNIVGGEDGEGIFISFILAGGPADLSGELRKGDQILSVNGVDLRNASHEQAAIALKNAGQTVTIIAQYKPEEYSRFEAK

pKd | Binder
3.87 | GIKKITSTAL [RPS6KA3, P51812]

molecular target: AHNAK1, Q09666; experiment: holdup assay; design: key: below the threshold = too weak to quantify, mostly under pKd 3.1 to 4; conditions: plain residues with an end cap or a label only (N-terminal biotin on a linker: ado-ado)
Sequence (Q09666 4-100): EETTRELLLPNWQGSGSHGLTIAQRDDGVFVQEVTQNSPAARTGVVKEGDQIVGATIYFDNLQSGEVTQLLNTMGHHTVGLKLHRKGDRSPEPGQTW

pKd | Binder
below the threshold | GIKKITSTAL [RPS6KA3, P51812]

molecular target: Inadl_9, Q8NI35; experiment: holdup assay; design: key: below the threshold = too weak to quantify, mostly under pKd 3.1 to 4; conditions: plain residues with an end cap or a label only (N-terminal biotin on a linker: ado-ado)
Sequence (Q8NI35 1530-1615): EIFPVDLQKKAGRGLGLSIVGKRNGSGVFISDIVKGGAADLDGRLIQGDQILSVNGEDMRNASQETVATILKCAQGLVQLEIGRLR

pKd | Binder
below the threshold | GIKKITSTAL [RPS6KA3, P51812]

molecular target: T3, MPDZ_12, O75970; experiment: holdup assay; design: key: below the threshold = too weak to quantify, mostly under pKd 3.1 to 4; conditions: plain residues with an end cap or a label only (N-terminal biotin on a linker: ado-ado)

pKd | Binder
below the threshold | GIKKITSTAL [RPS6KA3, P51812]

molecular target: LNX1_2, Q8TBB1; experiment: holdup assay; design: key: below the threshold = too weak to quantify, mostly under pKd 3.1 to 4; conditions: plain residues with an end cap or a label only (N-terminal biotin on a linker: ado-ado)
Sequence (Q8TBB1 371-470): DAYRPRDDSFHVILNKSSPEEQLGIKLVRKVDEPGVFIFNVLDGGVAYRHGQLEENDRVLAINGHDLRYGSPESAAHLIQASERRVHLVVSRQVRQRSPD

pKd | Binder
below the threshold | GIKKITSTAL [RPS6KA3, P51812]

molecular target: DLG2_2, Q15700; experiment: holdup assay; design: key: below the threshold = too weak to quantify, mostly under pKd 3.1 to 4; conditions: plain residues with an end cap or a label only (N-terminal biotin on a linker: ado-ado)
Sequence (Q15700 189-283): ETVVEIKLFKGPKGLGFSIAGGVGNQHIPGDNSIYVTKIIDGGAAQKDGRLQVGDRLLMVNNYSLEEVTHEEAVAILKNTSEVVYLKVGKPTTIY

pKd | Binder
3.88 | GIKKITSTAL [RPS6KA3, P51812]

molecular target: MAGI2_6, Q86UL8; experiment: holdup assay; design: key: below the threshold = too weak to quantify, mostly under pKd 3.1 to 4; conditions: plain residues with an end cap or a label only (N-terminal biotin on a linker: ado-ado)
Sequence (Q86UL8 1141-1229): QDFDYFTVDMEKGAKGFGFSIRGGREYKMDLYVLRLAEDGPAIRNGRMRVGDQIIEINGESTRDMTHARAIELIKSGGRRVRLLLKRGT

pKd | Binder
4.08 | GIKKITSTAL [RPS6KA3, P51812]

molecular target: T4, NHERF3_4, Q5T2W1; experiment: holdup assay; design: key: below the threshold = too weak to quantify, mostly under pKd 3.1 to 4; conditions: plain residues with an end cap or a label only (N-terminal biotin on a linker: ado-ado)

pKd | Binder
5.4 | GIKKITSTAL [RPS6KA3, P51812]

molecular target: DLG1_1, Q12959; experiment: holdup assay; design: key: below the threshold = too weak to quantify, mostly under pKd 3.1 to 4; conditions: plain residues with an end cap or a label only (N-terminal biotin on a linker: ado-ado)

pKd | Binder
4.05 | GIKKITSTAL [RPS6KA3, P51812]

molecular target: Inadl_1, Q8NI35; experiment: holdup assay; design: key: below the threshold = too weak to quantify, mostly under pKd 3.1 to 4; conditions: plain residues with an end cap or a label only (N-terminal biotin on a linker: ado-ado)
Sequence (Q8NI35 113-229): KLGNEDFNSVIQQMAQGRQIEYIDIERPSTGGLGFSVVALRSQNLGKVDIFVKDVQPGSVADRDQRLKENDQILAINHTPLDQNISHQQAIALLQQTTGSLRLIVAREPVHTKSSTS

pKd | Binder
below the threshold | GIKKITSTAL [RPS6KA3, P51812]

molecular target: LNX1_1, Q8TBB1; experiment: holdup assay; design: key: below the threshold = too weak to quantify, mostly under pKd 3.1 to 4; conditions: plain residues with an end cap or a label only (N-terminal biotin on a linker: ado-ado)
Sequence (Q8TBB1 261-371): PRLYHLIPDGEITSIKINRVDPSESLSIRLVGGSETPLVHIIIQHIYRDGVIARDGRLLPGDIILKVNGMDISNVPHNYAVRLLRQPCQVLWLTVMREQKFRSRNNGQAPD

pKd | Binder
3.8 | GIKKITSTAL [RPS6KA3, P51812]

molecular target: T5, PTPN13_1, Q12923; experiment: holdup assay; design: key: below the threshold = too weak to quantify, mostly under pKd 3.1 to 4; conditions: plain residues with an end cap or a label only (N-terminal biotin on a linker: ado-ado)

pKd | Binder
below the threshold | GIKKITSTAL [RPS6KA3, P51812]

molecular target: MAGI2_5, Q86UL8; experiment: holdup assay; design: key: below the threshold = too weak to quantify, mostly under pKd 3.1 to 4; conditions: plain residues with an end cap or a label only (N-terminal biotin on a linker: ado-ado)
Sequence (Q86UL8 915-1017): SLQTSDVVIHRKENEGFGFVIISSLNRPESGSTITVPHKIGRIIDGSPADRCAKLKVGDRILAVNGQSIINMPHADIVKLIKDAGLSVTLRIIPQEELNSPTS

pKd | Binder
3.95 | GIKKITSTAL [RPS6KA3, P51812]

molecular target: PTPN3, P26045; experiment: holdup assay; design: key: below the threshold = too weak to quantify, mostly under pKd 3.1 to 4; conditions: plain residues with an end cap or a label only (N-terminal biotin on a linker: ado-ado)
Sequence (P26045 505-587): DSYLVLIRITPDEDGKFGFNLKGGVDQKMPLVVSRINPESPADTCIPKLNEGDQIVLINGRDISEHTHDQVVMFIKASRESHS

pKd | Binder
5 | GIKKITSTAL [RPS6KA3, P51812]

molecular target: T6, SHANK1, Q9Y566; experiment: holdup assay; design: key: below the threshold = too weak to quantify, mostly under pKd 3.1 to 4; conditions: plain residues with an end cap or a label only (N-terminal biotin on a linker: ado-ado)

pKd | Binder
5.16 | GIKKITSTAL [RPS6KA3, P51812]

molecular target: T7, LNX2_2, Q8N448; experiment: holdup assay; design: key: below the threshold = too weak to quantify, mostly under pKd 3.1 to 4; conditions: plain residues with an end cap or a label only (N-terminal biotin on a linker: ado-ado)

pKd | Binder
below the threshold | GIKKITSTAL [RPS6KA3, P51812]

molecular target: PDZRN4_1, Q6ZMN7; experiment: holdup assay; design: key: below the threshold = too weak to quantify, mostly under pKd 3.1 to 4; conditions: plain residues with an end cap or a label only (N-terminal biotin on a linker: ado-ado)
Sequence (Q6ZMN7 213-318): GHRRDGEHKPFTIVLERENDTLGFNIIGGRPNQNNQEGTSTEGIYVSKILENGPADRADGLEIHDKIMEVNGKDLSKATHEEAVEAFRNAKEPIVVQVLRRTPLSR

pKd | Binder
4.6 | GIKKITSTAL [RPS6KA3, P51812]

molecular target: T8, HTRA4, P83105; experiment: holdup assay; design: key: below the threshold = too weak to quantify, mostly under pKd 3.1 to 4; conditions: plain residues with an end cap or a label only (N-terminal biotin on a linker: ado-ado)

pKd | Binder
below the threshold | GIKKITSTAL [RPS6KA3, P51812]

molecular target: T9, RAPGEF6, Q8TEU7; experiment: holdup assay; design: key: below the threshold = too weak to quantify, mostly under pKd 3.1 to 4; conditions: plain residues with an end cap or a label only (N-terminal biotin on a linker: ado-ado)

pKd | Binder
below the threshold | GIKKITSTAL [RPS6KA3, P51812]

molecular target: FRMPD4, Q14CM0; experiment: holdup assay; design: key: below the threshold = too weak to quantify, mostly under pKd 3.1 to 4; conditions: plain residues with an end cap or a label only (N-terminal biotin on a linker: ado-ado)
Sequence (Q14CM0 67-160): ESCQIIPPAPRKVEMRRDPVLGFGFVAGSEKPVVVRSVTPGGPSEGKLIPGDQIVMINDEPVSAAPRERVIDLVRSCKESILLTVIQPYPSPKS

pKd | Binder
4.26 | GIKKITSTAL [RPS6KA3, P51812]

molecular target: LIMK2, P53671; experiment: holdup assay; design: key: below the threshold = too weak to quantify, mostly under pKd 3.1 to 4; conditions: plain residues with an end cap or a label only (N-terminal biotin on a linker: ado-ado)
Sequence (P53671 143-248): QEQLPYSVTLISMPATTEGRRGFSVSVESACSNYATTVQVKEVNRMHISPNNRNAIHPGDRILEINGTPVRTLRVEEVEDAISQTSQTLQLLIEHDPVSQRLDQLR

pKd | Binder
below the threshold | GIKKITSTAL [RPS6KA3, P51812]

molecular target: T10, PDZD7_3, Q9H5P4; experiment: holdup assay; design: key: below the threshold = too weak to quantify, mostly under pKd 3.1 to 4; conditions: plain residues with an end cap or a label only (N-terminal biotin on a linker: ado-ado)

pKd | Binder
4.92 | GIKKITSTAL [RPS6KA3, P51812]

molecular target: T11, APBA3_1, O96018; experiment: holdup assay; design: key: below the threshold = too weak to quantify, mostly under pKd 3.1 to 4; conditions: plain residues with an end cap or a label only (N-terminal biotin on a linker: ado-ado)

pKd | Binder
below the threshold | GIKKITSTAL [RPS6KA3, P51812]
